{"source": "patent US10940182B2", "about": "“Use of modified vasoactive intestinal peptides in the treatment of hypertension” (PhaseBio Pharmaceuticals, Inc., priority 2011, dated 2021)", "key": {"[1]": {"target": "T1, human Vasoactive Intestinal Peptide Receptor 2 (VPAC2) (Homo sapiens, UniProt P41587)", "T1 construct": "expressed in transfected cells; host or cells: Chinese Hamster Ovary (CHO) cells", "T1 sequence (P41587 24-438)": "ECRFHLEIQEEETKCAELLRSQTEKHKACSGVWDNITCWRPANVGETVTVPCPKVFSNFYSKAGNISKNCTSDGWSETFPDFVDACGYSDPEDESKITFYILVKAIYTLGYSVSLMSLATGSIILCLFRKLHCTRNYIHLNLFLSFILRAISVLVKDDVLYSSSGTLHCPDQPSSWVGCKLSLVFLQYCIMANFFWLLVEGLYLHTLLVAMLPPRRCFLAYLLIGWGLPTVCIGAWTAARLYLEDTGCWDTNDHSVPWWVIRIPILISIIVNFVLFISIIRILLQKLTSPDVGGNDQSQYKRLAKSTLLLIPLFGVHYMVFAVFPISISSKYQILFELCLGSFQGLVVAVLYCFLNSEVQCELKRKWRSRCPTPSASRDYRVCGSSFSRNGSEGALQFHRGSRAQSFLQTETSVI", "assay": "cAMP cell-based bioassay, CHO cells expressing VPAC2", "conditions": "for in vitro activity for VPAC2 receptor compared with native VIP: cAMP, CHO cells expressing VPAC2, 30 minute incubation, FIG. 6, PB1047 DPP-IV treated", "procedure": "(§1) Since the amount of cAMP accumulation in cells after receptor-mediated ligand binding and activation is directly proportional to the amount of intact peptide or fusion protein present, the assay can be used to determine bioactivity and relative potency.\nIn this example, the activity of VIP-ELP fusion proteins PB1046 and PB1047 was tested. […] Both constructs have ELP(1-120) at their C-terminus. […] After 30 minute incubations of various concentrations of the fusion proteins with the cell, the cells were lysed and the amount of cAMP produced was measured using a commercial kit. PB1047 was DPP-IV treated prior to the addition to the cells.\nFIG. 11 illustrates the activity of PB1120 for the VPAC2 receptor. […] However, in contrast to the results seen with VPAC1, PB1046 was equipotent for VPAC2 as compared to the native peptide."}, "[2]": {"target": "T2, human Vasoactive Intestinal Peptide Receptor 1 (VPAC1) (Homo sapiens, UniProt P32241)", "T2 construct": "expressed in transfected cells; host or cells: Chinese Hamster Ovary (CHO) cells", "T2 sequence (P32241 31-457)": "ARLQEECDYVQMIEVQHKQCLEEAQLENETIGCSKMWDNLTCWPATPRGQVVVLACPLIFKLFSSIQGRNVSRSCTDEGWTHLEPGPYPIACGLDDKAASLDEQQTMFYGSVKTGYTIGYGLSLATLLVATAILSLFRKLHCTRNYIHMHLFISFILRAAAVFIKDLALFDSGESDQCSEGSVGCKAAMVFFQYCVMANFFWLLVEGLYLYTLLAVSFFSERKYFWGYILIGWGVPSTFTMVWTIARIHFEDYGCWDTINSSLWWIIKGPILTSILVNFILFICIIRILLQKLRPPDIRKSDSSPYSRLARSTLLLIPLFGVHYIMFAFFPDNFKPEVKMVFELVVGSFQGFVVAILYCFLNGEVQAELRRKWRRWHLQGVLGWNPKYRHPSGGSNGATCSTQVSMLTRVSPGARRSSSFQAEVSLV", "assay": "cAMP cell-based bioassay, CHO cells expressing VPAC1", "conditions": "for in vitro activity for VPAC1 receptor compared with native VIP: cAMP, CHO cells expressing VPAC1, 30 minute incubation, FIG. 7, PB1047 DPP-IV treated", "procedure": "as §1\nAfter 30 minute incubations of various concentrations of the fusion proteins with CHO cells, cells were lysed and the amount of cAMP produced was measured using a commercial kit. PB1047 was DPP-IV treated prior to the addition to the cells.\nThe activity of the PB1120 fusion peptide was tested in vitro."}, "[3]": {"system": "Spontaneously hypertensive rats", "assay": "Blood pressure effect of PB1047 in spontaneously hypertensive rats", "format": "in vivo, rat", "conditions": "10 mg/kg subcutaneous, vs buffer control, FIG. 8", "procedure": "The activity of the modified VIP-ELP fusion protein PB1047 was also tested in vivo. Specifically, effects of VIP-ELP fusion protein on blood pressure were tested. Spontaneously hypertensive rats were treated subcutaneous with PB1047 (10 mg/kg) or buffer control and their blood pressures were measured at several points after administration of the fusion protein. Five animals were used for each group and the graphs show the average and the standard deviation."}, "[4]": {"system": "conscious spontaneously hypertensive rats (SHR)", "assay": "Telemetric blood pressure and heart rate in conscious SHR, single SQ dose, with and without atenolol (Example 7)", "format": "in vivo, rat", "conditions": "for heart rate: +2 hr", "procedure": "Here, the effects of PB 1046 (Vasomera™) when given as a single-dose SQ bolus to conscious spontaneously hypertensive rats (SHR) was tested.\nSHR rats (351±4 g, n=8) were instrumented for telemetric blood pressure and ECG monitoring. Via a Latin-Square design, the effects of Vasomera (1, 3, and 9 mg/kg SQ) as well as of vehicle (VEH, SQ) were evaluated. Finally, Vasomera™ (9 mg/kg SQ) was assayed during concomitant β-adrenergic receptor blockade (BB, atenolol 20 mg/kg/day PO). Changes in mean arterial pressure (MAP) and heart rate (HR) were measured."}, "[5]": {"system": "conscious spontaneously hypertensive rats (SHR)", "assay": "Telemetric blood pressure and heart rate in conscious SHR pretreated with anti-hypertensives (Example 8)", "format": "in vivo, rat", "conditions": "9 mg/kg SQ", "procedure": "The hemodynamic effects of Vasomera™ when given as a single-dose SQ bolus to conscious spontaneously hypertensive rats (SHR) pretreated with three common anti-hypertensives were tested.\nSHR rats (351±4 g, n=8) were instrumented for telemetric BP and ECG monitoring. First, both Vasomera™ (9 mg [177 nmol]/kg, SQ) and placebo (VEH) were assayed in untreated animals. Then, the effects of Vasomera™ were tested during concomitant oral β-adrenergic receptor blockade (+BB, atenolol 20 mg/kg/day), calcium-channel blockade (+CCB, amlodipine 5 mg/kg/day) and ACE-inhibition (+ACE, ramipril 1 mg/kg/day). Mean arterial pressure (MAP) and heart rate (HR) were measured/averaged over 24 hours both pre- and post-dosing."}, "[6]": {"conditions": "under β-adrenergic receptor blockade (atenolol 20 mg/kg/day)"}, "[7]": {"conditions": "untreated rats, averaged over 24 hours"}}, "data": [{"molecule": "PB1047: VIP-ELP fusion protein with tripeptide MAA at the N-terminus (Met removed to leave AA), ELP1-120 at C-terminus (SEQ ID NO: 15) (protein, MAA-VIP ELP1-120) MAAHSDAVFTDNYTRLRKQMAVKKYLNSILNVPGVGVPGVGVPGGGVPGAGVPGVGVPGVGVPGVGVPGGGVPGAGVPGGGVPGVGVPGVGVPGGGVPGAGVPGVGVPGVGVPGVGVPGGGVPGAGVPGGGVPGVGVPGVGVPGGGVPGAGVPGVGVPGVGVPGVGVPGGGVPGAGVPGGGVPGVGVPGVGVPGGGVPGAGVPGVGVPGVGVPGVGVPGGGVPGAGVPGGGVPGVGVPGVGVPGGGVPGAGVPGVGVPGVGVPGVGVPGGGVPGAGVPGGGVPGVGVPGVGVPGGGVPGAGVPGVGVPGVGVPGVGVPGGGVPGAGVPGGGVPGVGVPGVGVPGGGVPGAGVPGVGVPGVGVPGVGVPGGGVPGAGVPGGGVPGVGVPGVGVPGGGVPGAGVPGVGVPGVGVPGVGVPGGGVPGAGVPGGGVPGVGVPGVGVPGGGVPGAGVPGVGVPGVGVPGVGVPGGGVPGAGVPGGGVPGVGVPGVGVPGGGVPGAGVPGVGVPGVGVPGVGVPGGGVPGAGVPGGGVPGVGVPGVGVPGGGVPGAGVPGVGVPGVGVPGVGVPGGGVPGAGVPGGGVPGVGVPGVGVPGGGVPGAGVPGVGVPGVGVPGVGVPGGGVPGAGVPGGGVPGWP", "values": [{"measurement": "in vitro activity for VPAC2 receptor compared with native VIP", "setting": "[1]", "result": "less active"}, {"measurement": "in vitro activity for VPAC1 receptor compared with native VIP", "setting": "[2]", "result": "about the same as it was in the test for VPAC2 receptor"}, {"measurement": "diastolic blood pressure", "setting": "[3]", "result": "significantly reduced"}, {"measurement": "systolic blood pressure", "setting": "[3]", "result": "significantly reduced"}]}, {"molecule": "PB1046: VIP-ELP fusion protein: VIP with Met at the N-terminus and ELP1-120 fused at the C-terminus (SEQ ID NO: 14) (protein, M-VIP ELP1-120) MHSDAVFTDNYTRLRKQMAVKKYLNSILNVPGVGVPGVGVPGGGVPGAGVPGVGVPGVGVPGVGVPGGGVPGAGVPGGGVPGVGVPGVGVPGGGVPGAGVPGVGVPGVGVPGVGVPGGGVPGAGVPGGGVPGVGVPGVGVPGGGVPGAGVPGVGVPGVGVPGVGVPGGGVPGAGVPGGGVPGVGVPGVGVPGGGVPGAGVPGVGVPGVGVPGVGVPGGGVPGAGVPGGGVPGVGVPGVGVPGGGVPGAGVPGVGVPGVGVPGVGVPGGGVPGAGVPGGGVPGVGVPGVGVPGGGVPGAGVPGVGVPGVGVPGVGVPGGGVPGAGVPGGGVPGVGVPGVGVPGGGVPGAGVPGVGVPGVGVPGVGVPGGGVPGAGVPGGGVPGVGVPGVGVPGGGVPGAGVPGVGVPGVGVPGVGVPGGGVPGAGVPGGGVPGVGVPGVGVPGGGVPGAGVPGVGVPGVGVPGVGVPGGGVPGAGVPGGGVPGVGVPGVGVPGGGVPGAGVPGVGVPGVGVPGVGVPGGGVPGAGVPGGGVPGVGVPGVGVPGGGVPGAGVPGVGVPGVGVPGVGVPGGGVPGAGVPGGGVPGVGVPGVGVPGGGVPGAGVPGVGVPGVGVPGVGVPGGGVPGAGVPGGGVPGWP", "values": [{"measurement": "potency for VPAC2 as compared to the native peptide", "setting": "[1]; FIG. 11", "result": "equipotent"}, {"measurement": "selectivity for VPAC2 receptor over VPAC1 receptor", "setting": "[1]; cAMP assays, FIG. 6 and 7", "result": "selectively activates VPAC2 receptor over VPAC1 receptor"}, {"measurement": "in vitro activity for VPAC2 receptor compared with native VIP", "setting": "[1]", "result": "somewhat more active than native VIP protein"}, {"measurement": "fold less active than the native VIP peptide on the VPAC1 receptor", "setting": "[2]; FIG. 10", "result": "approximately 11 fold"}, {"measurement": "in vitro activity for VPAC1 receptor compared with native VIP", "setting": "[2]", "result": "much less active than native VIP protein"}, {"measurement": "lowering of MAP vs VEH", "setting": "[4]; 9 mg/kg (177 nmol/kg) SQ, +6 hr", "result": "16±3", "unit": "%"}, {"measurement": "heart rate", "setting": "[4]; 9 mg/kg SQ with β-adrenergic receptor blockade (atenolol 20 mg/kg/day PO)", "result": "308±3", "unit": "bpm"}, {"measurement": "MAP", "setting": "[4]; 9 mg/kg SQ with β-adrenergic receptor blockade (atenolol 20 mg/kg/day PO), +6 hr", "result": "131±3", "unit": "mmHg"}, {"measurement": "heart rate", "setting": "[4]; 9 mg/kg SQ", "result": "370±15", "unit": "bpm"}, {"measurement": "MAP", "setting": "[4]; 9 mg/kg SQ, +6 hr", "result": "154±5", "unit": "mmHg"}, {"measurement": "duration of dose-dependent decreases in blood pressure post-dosing", "setting": "[4]; 1, 3, 9 mg/kg SQ, FIG. 14A", "result": "up to 12 hours"}, {"measurement": "adverse clinical effects", "setting": "[4]; SHR, 1-9 mg/kg SQ, with or without atenolol", "result": "No adverse clinical effects were noted"}, {"measurement": "duration of decreases in blood pressure post-dosing", "setting": "[5]; FIG. 15A", "result": "up to 12 hours"}, {"measurement": "change in MAP", "setting": "[5]; rats pre-treated with amlodipine 5 mg/kg/day oral", "result": "−13±2", "unit": "%"}, {"measurement": "change in MAP", "setting": "[5]; rats pre-treated with atenolol 20 mg/kg/day oral", "result": "−14±1", "unit": "%"}, {"measurement": "change in MAP", "setting": "[5]; rats pre-treated with ramipril 1 mg/kg/day oral", "result": "−9±2", "unit": "%"}, {"measurement": "change in heart rate", "setting": "[5]; [6]", "result": "+6±1%"}, {"measurement": "heart rate post-dosing", "setting": "[5]; [6]", "result": "294±2", "unit": "bpm"}, {"measurement": "MAP post-dosing", "setting": "[5]; [7]", "result": "171±5", "unit": "mmHg"}, {"measurement": "change in heart rate", "setting": "[5]; [7]", "result": "+8±1%"}, {"measurement": "heart rate post-dosing", "setting": "[5]; [7]", "result": "384±8", "unit": "bpm"}, {"measurement": "lowering of MAP, post- vs pre-dosing", "setting": "[5]; [7]", "result": "9±1", "unit": "%"}, {"measurement": "chronotropy under co-treatment", "setting": "[5]; with amlodipine 5 mg/kg/day", "result": "unaffected"}, {"measurement": "chronotropy under co-treatment", "setting": "[5]; with ramipril 1 mg/kg/day", "result": "unaffected"}, {"measurement": "adverse clinical effects", "setting": "[5]; SHR, with or without anti-hypertensives", "result": "no adverse clinical effects were noted"}]}]}
